The nature of the series: soluble on expression in E. coli; label from the status in PepcDB or PDB records.
On to “MSTQYETQGYTINNAGRRLVVDPITRIEGHMRCEVNINDQNVITNAVSCGTMFRGLEIILQGRDPRDAWAFVERICGVCTGVHALASVYAIEDAIGIKVPDNANIIRNIMLATLWCHDHLVHFYQLAGMDWIDVLDALKADPRKTSELAQSLSSWPKSSPGYFFDVQNRLKKFVEGGQLGIFRNGYWGHPQYKLPPEANLMGFAHYLEALDFQREIVKIHAVFGGKNPHPNWIVGGMPCAINIDESGAVGAVNMERLNLVQSIITRTADFINNVMIPDALAIGQFNKPWSEIGTGLSDKCVLSYGAFPDIANDFGEKSLLMPGGAVINGDFNNVLPVDLVDPQQVQEFVDHAWYRYPNDQVGRHPFDGITDPWYNPGDVKGSDTNIQQLNEQERYSWIKAPRWRGNAMEVGPLARTLIAYHKGDAATVESVDRMMSALNLPLSGIQSTLGRILCRAHEAQWAAGKLQYFFNKLMTNLKNGNLATASTEKWEPTTWPTECRGVGFTEAPRGALGHWAAIRDGKIDLYQCVVPTTWNASPRDPKGQIGAYEAALMNTKMAIPEQPLEILRTLHSFDPCLACSTHVLGDDGSELISVQVR”, for which the “soluble on expression in E. coli” value is listed as “not soluble”.
As for “MGSDKIHHHHHHMKIVYIITQATWGGAQAHLYSLIKAQVMRGNAVALVYGVEGRLSASVAKEFQDVQVVRVASLVHPIAPLSDLKAIYTLRKLVKNWQPDIIHLHSSKAGMIGRLATIRLPMKVIFTVHGWGFTPGVGKKRQLLMKTIEKALSRLTTAYICVSQFDYDLGVQSGVITSAHPARVIHNGVTALTGANKATSSEVFVLSMAARFDTPKRQDILIQALTYLPENLPIVCHFLGDGPSIEACKTLTHQLNLDGKVNFYGVVDNVQKYYSQSDVGVLISDYEALPISLVEALAQGLPIIASNVGGIQELIDHNGFLVTNDARQIAEKILTLYQSKKIAEVKTNSYQMYQRHYTEHEMLEQTQAYYLRCLA”, the entry is “not soluble”; as for “MSTHGSLSEVERFNLLYKSSFNKVCNFACFYVRNKQASEDITMDAFLQLLETMKVESVDNPMALLITIVKHKSLDYLKTQVRREDTKDDLIQWKQRELAIRISNLEGCNPSYIFSQEIKSIVMKTLNQLPEQTKKVFIMNRFENKSGKEIAQTLGISVKGVDYHMNKALKELRAALKDYLPILTWLCFMNPINKG”, “not soluble”.
On to “MNGQAKIAEPRRLYQQIADQIRELIDVGEFLPGTRLPAERELAQKLGVSRPSLREALIALEIDNTVEIRMGSGVYVSTEALQTTHHTKSLGDSPSELMQARAALEGATIVLAANRMTDETIAALRQILNTMQKEIEAGRKPLDQDRLFHVTIAEQSGNSVLARLVANLFDERHSPISAQLRVKFEDRDTWTRALQEHEAILAALELKDPLLAQAAMHIHLEGSKRRWVDS”, for which the “soluble on expression in E. coli” value is recorded as “soluble”.
As for “MGSDKIHHHHHHMKVTFGQQTTKVKQLADLLSQEISMGKYKSDCTLPSINKLSREYQVSRDTVFKAFIDLKDRGIIDSTPGKGYYVTNKLTNILLLLDEYSPFKYSLYNSFIKKLSINYKVDLLFHQYNERLFNTILRESIGRYNKYIVMNFDNEKLSPHLYKIDSSKLLLLDFGKFDKKDYSYVCQDFDDSFYHALAALKEHLRKYQRLVLLFPEDIKHPRSSCQYFNCFCQDYHIDSAIVENTDRIQVRKGEVYIAIRQIEVVNIIKQSRTTGLKCGEDFGLIAYNDTPAYEVIDQGITVLSINWEELGRKAAEFVLTGQEIRTYLPTEVHLRNSI”, the entry is “not soluble”.
Take “AEFKHVFVCVQDRPPGHPQGSCAQRGSREVFQAFMEKIQTDPQLFMTTVITPTGSMNACMMGPVVVVYPDGVWYGQVKPEDVDEIVEKHLKGGEPVERLVISKGKPPGMF”: the “soluble on expression in E. coli” value is reported as “soluble”.
As for “MDLQIIQNKIFEVRGCRVMLDFHLAELYQVETRALKQAVKRNLSRFPSDFAFQLTKDEWQGLITNCDKFPENIRHTPTPPLAFLEQGVAMLSSVLRSQTAIDVNISIMRAFVLMRQMSIGYEELLKRIEELEQSTDAQFSEVYQALTQLLSKPDPKPRKPIGYRTYDE”, the entry is “not soluble”.
As for “MSLSDILILTHAEFCPPGHLATVLAQRGLDFRVVRADLGQLAGLDAERPRAVAIMGGPMSVNDDLPWLGDELALLRRFIERRIPLLGHCLGGQLLARVLGATVRQQPYTEMGWQPMQRESRDSPWLAHLPERFAIFQWHGDAFDLPQGAERLLSSAWCENQAFSWGGHVLGLQGHPEMTEELVRRWIDGWPQLLDSSQPSQQSREAMLADLPLKVAALNRVAEGFYRHWLSLLREGHHHHHH”, the entry is “not soluble”; as for “MNQIWLKVCAASDMQPGTIRRVNRVGAAPLAVYRVGDQFYATEDTCTHGIASLSEGTLDGDVIECPFHGGAFNVCTGMPASSPCTVPLGVFEVEVKEGEVYVAGEKKLEHHHHHH”, “soluble”; as for “MGSDKIHHHHHHMGEKMLGIINATGSFPSLKKVTGHRSLAALPFGGRYRLIDFMLSNMVNSNIHSVAVFTSHKNRSLMDHVGSGKQWDLDRKRDGLFLFPPNCQCDQDEFGSFAHFRRHIDYFLRAREEYVVITNSHLVTALNFQAVLERHIHTAADITEVCHEGVSLQTYVLKKQLLLDLFDSYKDVEQYSLFDVVREKRGKSLHIATYEHTGYVAIIDSIESYYKHSLEILQPAIWKQLFKKEAPIFTKVKDEPPTRYVKGAVVKNTMIANGSIIEGEVENSVVSRSVKIGKGSIVRNSIIMQKSQIGDNCIIDGVIIDKDVKIGDGVVLKGNADEPYVVEKGSVQNSTINSYS”, “not soluble”.
As for “AHHHHHHGSRTNAFEAVARYVYPSLRRRLVEILRERGLTQIQIAELLHITQSAVSRYLRMNRGALIEVEKFQDIDEKLKGLADTIVREKPDEYYIHGELVKIAVEMLGKGYVCSFHSKVDPEIDPKLCRICIETFG”, the entry is “not soluble”; as for “MTSITVQLRSGLDGVYFALKQMSGLRAKLLLVGNENPVPTVLPASQRGTPFPGGNTMTQASLIRLSELNNDAQYNLNDTSMYNPVGAAAYGVNGDKIGTVRDALVEPETGRIRYFLVDVGGWFSSKEVLVPVGYGRVDDSGVYFDSLTKDQVKDMSEYRADQAYSSEMMDTDERVLRGNQSQEEYHQRAYQTPDRLQLLEERLVVNKDRFKAGSVQIGKRIETRQETVSVPLQREEVVIERHAVTDGRAVEGAVLGEGHQTMSVDLEAERANISKQAYVTEEVSVGKRAVTETQQVTETVGREVLDVNQTGDVRTTEGTALTDDTTKRNILEHHHHHH”, “soluble”.
For “MSLRPFATKAEADAAVADIRARGRLIVGLDIGSNLFSFRDPITGEITGFDVDIAGEVARDIFGVPSHVEYRILSAAERVTALQKSQVDIVVKTMSITCERRKLVNFSTVYLDANQRILAPRDSPITKVSDLSGKRVCVARGTTSLRRIREIAPPPVIVSVVNWADCLVALQQREIDAVSTDDTILAGLVEEDPYLHIVGPDMADQPYGVGINLDNTGLVRFVNGTLERIRNDGTWNTLYRKWLTVLGEGHHHHHH”, the “soluble on expression in E. coli” value is listed as “soluble”.
As for “MITWADALGFRLVVVDSLGSADQEVVEAEDGEPFERHEMRRLTRPLWTRRKARKLSQGDLALLLGVSRASVQRWEDADKFPRPIALIAWAGRLECSVELDRVTSENDRPQPGREEA”, the entry is “not soluble”; as for “AKPVTSETMAAKTVGLQIYSLGKELYADVPGGLKKIKQMGYTNLELAGYKEGKIGGVDMMEFKKMVDDAGLKITSSHVNPPVREYTKANRSQISEYWKKTADDHAKLGVKYLIQPGQPSTRSTEETAFVCEIFNEAGKIVKAAGIPFGYHNHEMEFAKVNPGSTEAKLGRRVKGDCIYELFLKNTDPSLVFFEMDVYWAVMGQQDPIEWLKKYPNRIKVLHIKDRAILGESGMMNFENIFRQAYANGIKDYFVELEGMPDGRSQFEGVKGCVDYLLKAPFVK”, “soluble”; as for “AATTGYDAVDDLLHYHERGNGIQINGKDSFSNEQAGLFITRENQTWNGYKVFGQPVKLTFSFPDYKFSSTNVAGDTGLSKFSAEQQQQAKLSLQSWADVANITFTEVAAGQKANITFGNYSQDRPGHYDYGTQAYAFLPNTIWQGQDLGGQTWYNVNQSNVKHPATEDYGRQTFTHEIGHALGLSHPGDYNAGEGNPTYNDVTYAEDTRQFSLMSYWSETNTGGDNGGHYAAAPLLDDIAAIQHLYGANLSTRTGDTVYGFNSNTGRDFLSTTSNSQKVIFAAWDAGGNDTFDFSGYTANQRINLNEKSFSDVGGLKGNVSIAAGVTIENAIGGSGNDVIVGNAANNVLKGGAGNDVLFGGGGADELWGGAGKDIFVFSAASDSAPGASDWIRDFQKGIDKIDLSFFNKEANSSDFIHFVDHFSGTAGEALLSYNASSNVTDLSVNIGGHQAPDFLVKIVGQVDVATDFIV”, “soluble”.
As for “MGSDKIHHHHHHMGETVPEKAQGAIRHGGNLGKARLMFRQAPEPWIDLSTGINPHSYPHSPIPASAFARLPEPGAAEELKQLAAAHFGAPSAQHVTLSPGTQMLMPLLAQIAINRGAQSGAVLSPAYAEHARTARMAGLTVTEVENIGDLSAYGYAVVVNPNNPDGRITDREALLALAGTIGRKGGLLVVDEAFIETGGAESLAVATNGEALVVLRSFGKFYGMAGVRLGFAIAHPEIAAELEARLGPWAVSGPALHIATEALADREWQSSMRLRLAEEARRMNELLEKAGLKIAGGTSLFTLVRDERSRALFGHLGRRGILVRIFDERPDDMRFGLPGSEADWQRVEEALRSFDHSSKV”, the entry is “not soluble”.
As for “EVYALEESRDVYLSDLDWLNATHGDDTKSKIVQKNHPFTPGNNNQSTKISLKMEDGSISEFEKGLGTIAGSPSTITYDISGAGVTKFFSYLGIDRSANPINEQYAKVDKIEVVVDGKVIYSTINQFPNGLTYETPAIKVDLNIPENAKRLQLKSYAGEKTWGDEVVYADAKFTAKGDFVN”, the entry is “soluble”; as for “MSYNNLLAIEKPVRYTGDEIGSRPKEDAELRFVLAFPDVYEVGMSHLGLQILYDILNREEGIAAERAYTPWPDREAQLRSLGESLATLESQTSLARADIIGFTLQYELSYTNILTMLDLAGIPFRAAERGDEFPLVIAGGPCACNPEPLADFLDAVLLGDGEEAVVEIAAACLERKRNGESKQWLLERLASIDGVYVPSFFEPRYHDDGTIDAIIPLRPAHGRVRRRFLSDLDTAPYPTAPVVPFLKTIHDRVSIEIGRGCTRGCRFCQAGYLYRPVRERSPETILKLVEETLRNTGYDEVSLLSLSTGDYGCLTPLLRELMVRYAHERIAVALPSLRVGSLSQELVEEIRKVRKTGFTLAPEAGSERLRTIINKGISEEDLLRNAFEAFSNGWRVIKLYFMIGLPGETEEDLVGIADLARKVKQEGKRAGSGGEVNVSVSTFVPKPHTPFQWEPQITTEETVAKQRFLRDELKKRKLGLKWHDAPLSFMEGVFARGDRRLGAVLAKAWELGCRFDGWGDRLKSTTWHEAFAVCGIDPAFYHRRRGIDETLPWDHLDFGVTRAFLRQELEKAWAGEPTGDCRTGRCTGCGICDFDRIAMRTTDPAWQKGLEHHHHHH”, “not soluble”.
Take “MIVDFYFDFLSPFSYLANQRLSKLAQDYGLTIRYNAIDLARVKIAIGNVGPSNRDLKVKLDYLKVDLQRWAQLYGIPLVFPANYNSRRMNIGFYYSGAEAQAAAYVNVVFNAVWGEGIAPDLESLPALVSEKLGWDRSAFEHFLSSNAATERYDEQTHAAIERKVFGVPTMFLGDEMWWGNDRLFMLESAMGRLCRQNADLSS”: the “soluble on expression in E. coli” value is listed as “soluble”.

Source of the values: the DeepSol protein solubility set.
